pKd: −log10 of the molar value.
Assays:
Assay in all cases: EMSA
[1] = tested on: OCT4-DBD (Homo sapiens)
[2] = tested on: OCT4-del-73 (Homo sapiens)
[3] = tested on: OCT4-WT (Homo sapiens)

Substance	pKd [1]	pKd [2]	pKd [3]
LIN28B-DNA	8.34	9.07	8.84
LIN28B-nucleosome		9.02	

Source: article PMC7611526
